According to patent US20250263502A1 (published 2025):

Columns and labels:
[1] = target: T1, ectodomain of human CD98hc (human, UniProt P08195 105-529); test: ELISA, purified VNAR-Fc titrated on coated CD98hc
T1 chain: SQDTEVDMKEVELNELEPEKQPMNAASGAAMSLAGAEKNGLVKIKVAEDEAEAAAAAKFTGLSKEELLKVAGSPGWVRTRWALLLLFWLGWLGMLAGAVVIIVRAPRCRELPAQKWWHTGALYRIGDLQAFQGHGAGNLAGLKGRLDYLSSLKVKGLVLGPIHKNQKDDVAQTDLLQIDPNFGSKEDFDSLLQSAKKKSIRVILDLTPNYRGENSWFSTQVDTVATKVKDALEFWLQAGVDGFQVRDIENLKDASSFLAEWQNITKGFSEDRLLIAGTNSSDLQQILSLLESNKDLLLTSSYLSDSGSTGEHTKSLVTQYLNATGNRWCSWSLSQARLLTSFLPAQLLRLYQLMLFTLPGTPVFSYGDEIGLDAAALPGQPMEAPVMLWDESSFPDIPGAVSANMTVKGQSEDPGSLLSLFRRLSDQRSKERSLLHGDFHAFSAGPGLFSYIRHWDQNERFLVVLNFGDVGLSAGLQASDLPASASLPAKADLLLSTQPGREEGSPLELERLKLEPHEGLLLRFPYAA

[2] = target: T1, ectodomain of human CD98hc; test: ELISA, expression medium of VNAR-hFc on coated protein
[3] = target: T1, ectodomain of human CD98hc; test: ELISA, VNAR-hFc titrated on coated human CD98hc

Row | Binder | EC50 [1] [nM] | Binding [relative units] [2] [relative units] | EC50 [3] [nM]
1 | VNAR clone E12 fused N-terminally to human IgG1 Fc (VNAR-hFc) (Fc fusion, Bivalent VNAR-Fc from Expi293 cells; not shown: human IgG1 Fc (hinge, CH2 and CH3) as encoded by vector pFUSE-hIgG1e3-Fc2) ARVDQTPQTITKEEGESLTINCVLRTQDPALASTSWYRKKSGSTREETISKGGRYVETVNSGSKSFSLRINDLTVEDSGTYRCNVYFLLAPTKTKLQGIDVYGDGTAVTVNA | 56 | 2.19 | –
2 | VNAR clone G3 fused N-terminally to human IgG1 Fc (VNAR-hFc) (Fc fusion, Bivalent VNAR-Fc from Expi293 cells; not shown: human IgG1 Fc (hinge, CH2 and CH3) as encoded by vector pFUSE-hIgG1e3-Fc2) ARVDQTPQTITKETGESLTINCVLRDNNCALSTTYWYRKKSGSTNEENISKGGRYVETVNSGSKSFSLRINDLTVEDSGTYRCKVHFFPSFCNSTSIRSVDVYGGGTVVTVNA | 107 | 1.48 | –
3 | VNAR clone H6 fused N-terminally to human IgG1 Fc (VNAR-hFc) (Fc fusion, Bivalent VNAR-Fc from Expi293 cells; not shown: human IgG1 Fc (hinge, CH2 and CH3) as encoded by vector pFUSE-hIgG1e3-Fc2) ARVDQTPQTITKEEGESLTINCVLRTHSNALASTSWYRKKSGSTREETISKGGRYVETVNSGSKSFSLRINDLTVEDSGTYRCNVYAFLEIQPNIYHEFDVYGDGTAVTVNA | 6 | 3.31 | –
4 | VNAR clone H7 fused N-terminally to human IgG1 Fc (VNAR-hFc) (Fc fusion, Bivalent VNAR-Fc from Expi293 cells; not shown: human IgG1 Fc (hinge, CH2 and CH3) as encoded by vector pFUSE-hIgG1e3-Fc2) ARVDQTPQTITKEEGESLTINCVLRYNNPALASTSWYRKKSGSTREETISKGGRYVETVNSGSKSFSLRINDLTVEDSGTYRCNVYFFPSFLVDKLQSHDVYGDGTAVTVNA | 6 | 3.93 | –
5 | VNAR clone F1 fused N-terminally to human IgG1 Fc (VNAR-hFc) (Fc fusion, Bivalent VNAR-Fc from Expi293 cells; also called F1-hFc; not shown: human IgG1 Fc (hinge, CH2 and CH3) as encoded by vector pFUSE-hIgG1e3-Fc2) ARVDQTPQTITKEEGESLTINCVLRVHGRALASTSWYRKKSGSTREETISKGGRYVETVNSGSKSFSLRINDLTVEDSGTYRCNVYGLSSGDIEGVKKIDVYGDGTAVTVNA | 3 | 3.76 | –
6 | F12 variant F12-A01 as VNAR-hFc fusion (Fc fusion, not shown: human IgG1 Fc (hinge, CH2 and CH3) as encoded by vector pFUSE-hIgG1e3-Fc2) ARVDQTPQTITKEEGESLTINCVLRVHGRALASTSWYRKKSGSTREETISKGGRYVETVNSGSKSFSLRINDLTVEDSGTYRCNVNGLSSGDKEGVKKIDVYGDGTAVTVNA | – | – | 10
7 | F12 variant F12-E03 as VNAR-hFc fusion (Fc fusion, not shown: human IgG1 Fc (hinge, CH2 and CH3) as encoded by vector pFUSE-hIgG1e3-Fc2) ARVDQTPQTITKEEGESLTINCVLRVHGRALASTSWYRKKSGSTREETISKGGRYVETVNSGSKSFSLRINDLTVEDSGTYRCNVNGLSSGDQEGVKKIDVYGDGTAVTVNA | – | – | 40
8 | F12 variant F12-G04 as VNAR-hFc fusion (Fc fusion, not shown: human IgG1 Fc (hinge, CH2 and CH3) as encoded by vector pFUSE-hIgG1e3-Fc2) ARVDQTPQTITKEEGESLTINCVLRVHGRALASTSWYRKKSGSTREETISKGGRYVETVNSGSKSFSLRINDLTVEDSGTYRCNVNGLSSGDIEGVKKIDVYGDGTAVTVNA | – | – | 30
9 | F12 variant F12-C01 as VNAR-hFc fusion (Fc fusion, not shown: human IgG1 Fc (hinge, CH2 and CH3) as encoded by vector pFUSE-hIgG1e3-Fc2) ARVDQTPQTITKEEGESLTINCVLRVHGRALASTSWYRKKSGSTREETISKGGRYVETVNSGSKSFSLRINDLTVEDSGTYRCNVYGLSSGDSEGVKKIDVYGDGTAVTVNA | – | – | 30
10 | F12 variant F12-B12 as VNAR-hFc fusion (Fc fusion, not shown: human IgG1 Fc (hinge, CH2 and CH3) as encoded by vector pFUSE-hIgG1e3-Fc2) ARVDQTPQTITKEEGESLTINCVLRVHGRALASTSWYRKKSGSTREETISKGGRYVETVNSGSKSFSLRINDLTVEDSGTYRCNVNGLSSGDIEGVKKLDVYGDGTAVTVNA | – | – | 10
11 | F12 variant F12-G02 as VNAR-hFc fusion (Fc fusion, not shown: human IgG1 Fc (hinge, CH2 and CH3) as encoded by vector pFUSE-hIgG1e3-Fc2) ARVDQTPQTITKEEGESLTINCVLRVHGRALASTSWYRKKSGSTREETISKGGRYVETVNSGSKSFSLRINDLTVEDSGTYRCNVYGLMNVDIEGVKKIDVYGDGTAVTVNA | – | – | 10
12 | VNAR clone F12 fused N-terminally to human IgG1 Fc (VNAR-hFc) (Fc fusion, Bivalent VNAR-Fc from Expi293 cells; also called F12-hFc; VNAR F12-hFc; not shown: human IgG1 Fc (hinge, CH2 and CH3) as encoded by vector pFUSE-hIgG1e3-Fc2) ARVDQTPQTITKEEGESLTINCVLRVHGRALASTSWYRKKSGSTREETISKGGRYVETVNSGSKSFSLRINDLTVEDSGTYRCNVYGLSFGDIEGVKKIDVYGDGTAVTVNA | 12 | 3.99 | –
13 | F12 variant F12-H04 as VNAR-hFc fusion (Fc fusion, not shown: human IgG1 Fc (hinge, CH2 and CH3) as encoded by vector pFUSE-hIgG1e3-Fc2) ARVDQTPQTITKEEGESLTINCVLRVHGRALASTSWYRKKSGSTREETISKGGRYVETVNSGSKSFSLRINDLTVEDSGTYRCNVYGLMQGDIEGVKKIDVYGDGTAVTVNA | – | – | 20
14 | VNAR clone D1 fused N-terminally to human IgG1 Fc (VNAR-hFc) (Fc fusion, Bivalent VNAR-Fc from Expi293 cells; also called D1-hFc; not shown: human IgG1 Fc (hinge, CH2 and CH3) as encoded by vector pFUSE-hIgG1e3-Fc2) ARVDQTPQTITKEEGESLTINCVLRHNYSALASTSWYRKKSGSTREETISKGGRYVETVNSGSKSFSLRINDLTVEDSGTYRCNVYGISFIEEKIRYDFDVYGDGTAVTVNA | 28 | 3.5 | –
